In patent US20240293579A1, “Composition Comprising Trim31 and Rhbdf2 for Treatment of NAFLD/NASH” (CHONGQING MEIPULAN TECHNOLOGY CO., LTD, priority 2021, published 2024):

Target: T1, human RHBDF2, full-length, HA-tagged (RHBDF2-HA), Q6PJF5
T1 chain: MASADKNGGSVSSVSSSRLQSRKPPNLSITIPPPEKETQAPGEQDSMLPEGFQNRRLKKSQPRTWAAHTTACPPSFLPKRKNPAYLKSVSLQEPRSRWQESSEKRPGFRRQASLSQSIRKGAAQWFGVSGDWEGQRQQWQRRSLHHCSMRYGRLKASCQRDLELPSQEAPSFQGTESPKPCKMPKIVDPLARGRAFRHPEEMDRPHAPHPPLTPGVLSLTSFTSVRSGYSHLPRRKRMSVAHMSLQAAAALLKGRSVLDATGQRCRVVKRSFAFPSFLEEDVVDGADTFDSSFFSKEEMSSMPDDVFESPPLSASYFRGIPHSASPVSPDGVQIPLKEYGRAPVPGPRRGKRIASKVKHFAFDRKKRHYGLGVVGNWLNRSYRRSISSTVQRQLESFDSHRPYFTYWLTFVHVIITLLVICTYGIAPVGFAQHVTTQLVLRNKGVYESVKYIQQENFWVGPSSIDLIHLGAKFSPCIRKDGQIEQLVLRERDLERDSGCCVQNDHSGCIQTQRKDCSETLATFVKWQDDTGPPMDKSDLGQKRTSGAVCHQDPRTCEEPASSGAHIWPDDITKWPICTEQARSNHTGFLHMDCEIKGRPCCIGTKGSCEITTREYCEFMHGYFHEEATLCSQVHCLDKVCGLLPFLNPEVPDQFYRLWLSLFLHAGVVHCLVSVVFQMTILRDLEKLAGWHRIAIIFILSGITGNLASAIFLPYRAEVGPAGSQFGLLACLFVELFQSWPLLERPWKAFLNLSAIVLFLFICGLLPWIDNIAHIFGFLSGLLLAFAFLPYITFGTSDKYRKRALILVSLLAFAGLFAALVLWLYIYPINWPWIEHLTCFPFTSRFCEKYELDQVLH

B1: human TRIM31, full-length wild type, Flag-tagged (TRIM31-Flag WT) (protein)
chain: MASGQFVNKLQEEVICPICLDILQKPVTIDCGHNFCLKCITQIGETSCGFFKCPLCKTSVRKNAIRFNSLLRNLVEKIQALQASEVQSKRKEATCPRHQEMFHYFCEDDGKFLCFVCRESKDHKSHNVSLIEEAAQNYQGQIQEQIQVLQQKEKETVQVKAQGVHRVDVFTDQVEHEKQRILTEFELLHQVLEEEKNFLLSRIYWLGHEGTEAGKHYVASTEPQLNDLKKLVDSLKTKQNMPPRQLLEDIKVVLCRSEEFQFLNPTPVPLELEKKLSEAKSRHDSITGSLKKFKDQLQADRKKDENRFFKSMNKNDMKSWGLLQKNNHKMNKTSEPGSSSAGGRTTSGPPNHHSSAPSHSLFRASSAGKVTFPVCLLASYDEISGQGASSQDTKTFDVALSEELHAALSEWLTAIRAWFCEVPSS
With B1 the “polyubiquitination of Rhbdf2 with single-lysine ubiquitin constructs (K48O, K63O, K33O, K6O, K29O, K27O)” value was “Trim31-mediated increase in polyubiquitination of Rhbdf2 could be greatly observed in the presence of K48-loading vector, but not with other vectors”.
